Consider 19 sequences from a protein production outcome set (Wang et al. 2014).

A short description of the data set: label from the status in PepcDB records.

In the case of “MIWMAEIEGIYTIWLREMKRFFRYRSRIVTSIVTPLLWLIIFGTGLGAAVRFGGVPGGYKAFIYPGIIGQTVLFTSIFSGVSVIIDRQYGFLKEILVAPISRESMVVGKALGISTASMIQAAILLALSFIVGITMSPQCFIVSMVIALIISMGLGGLGLVIAAFTDSMEGFNLIMSFIVLPIFLLSGALFPITGLPAWLQGAVYINPLTYAVDALRFTILRRSVLPLEVNLLVITIFAVIAVLIAAFLFNRKEQNLM”, the protein production result is recorded as “failed”. The entry for “MIYFIRKKKWLKQLEKGEAMKYAILIGDGMADYPIEKLGNRTILQAARTPAMDSIAARGRAGLAKTVPDSFPPGSDVANMSILGYDPATYYSGRAPLEAASMGVALAADDVAFRCNLITTEHGMIKDYSAGHISSDEAEILIDTLDYELSTENIRFYPGISYRHLIVAGNNLGAETECTPPHDITGEKIDKYLPRGKDGEFFSELIEASKVVLELHPVNLKRVEEGKNPANSIWVWGQGYAPKFTAFMKLYGKKGAVISAVDLLKGIGIYAGLDVIEVHGATGYLDTNYEGKVRAAIEALKTRDLVFVHVEAPDEAGHEGSIEKKLKAVEDFDSRIVAPILEYAENSDEPFTILVLPDHPTPISVKTHTRDPIPFAIYRTDKPETDNVEAFDEESVKNGSMGLVKASDLIGILIKS” is “failed”; for “MIYLRKANERGHANHGWLDSWHTFSFANYYDPNFMGFSALRVINDDVIEAGQGFGTHPHKDMEILTYVLEGTVEHQDSMGNKEQVPAGEFQIMSAGTGIRHSEYNPSSTERLHLYQIWIMPEENGITPRYEQRRFDAVQGKQLVLSPDARDGSLKVHQDMELYRWALLKDEQSVHQIAAERRVWIQVVKGNVTINGVKASTSDGLAIWDEQAISIHADSDSEVLLFDLPPV” it is “not failed”; for “MIYQPDENRYHTMEYRRCGRSGVKLPAISLGLWHNFGDTTRVENSRALLQRAFDLGITHFDLANNYGPPPGSAECNFGRILQEDFLPWRDELIISTKAGYTMWDGPYGDWGSRKYLIASLDQSLKRMGLEYVDIFYHHRPDPETPLKETMKALDHLVRHGKALYVGISNYPADLARQAIDILEDLGTPCLIHQPKYSLFERWVEDGLLALLQEKGVGSIAFSPLAGGQLTDRYLNGIPEDSRAASGSRFLKPEQITADKLEKVRRLNELAARRGQKLSQMALAWVLRNDNVTSVLIGASKPSQIEDAVGMLANRRFSAAECAEIDAILEGRF” it is “failed”. Regarding “MKAALHNLGCKVNSYETEAMEQMLIAAGYEIVPFCEDEKADVYVINTCSVTNIADRKSRQMLHKAKKQNPNAIVVAAGCYVQARGDELAADDMVDIVIGNNRKNRLVEIINDYIGNNSNNEAVVDIAKTHEYEELNIYDVCEHTRAYIKVQDGCNQFCSYCIIPYTRGRVRSRRPEDVTAEVRRLVEKGYKEFILAGIHLSSYGIDFEAPCDEAVDYRAANMPGSRLLELIEAVCSVEGVKRLRLGSFEPRILTEAFVKRMAELEPVCPHFHISLQSGCDATLKRMNRRYTADEYEESCKLLRKYFPNAAITTDVIVGFPQETDEEFAITKEYLERIHFYEMHVFKYSRRKGTAADRMDGQVPEPVKTARSAGLLELEKRMSREYRESALGSIQEVLFEEVAGTCDDCGTSVITGHTKTYINVHVKLPADMSLEYINKICNVKLEHLSDDGEWVNGTLCG”, the protein production result was “failed”. In the case of “MKAALWMAGWLALMVIVAVAGRETLRELSVFQVMELRSVIGFAMLYPLIHKFGGLTAMATARPLAHLSRNLVHYAAQLGWFYALTLISIGQVVSIEFTMPIWIAILAATFLGEHMNVWKITAVVLGLIGVVVIVRPATSSIEPGQLIALGAAVGFGISVTLMKSLTRTESTLAIIFWMLLIQSAAGLVPALWLWQWPSAYVWVWIVIIAFCGTFSHYCMARALTYADATIVVPMDFLRVPLSATAGWLIYGERLDAYTVIGAALILIGNLLNLRGAPRPPAAASIRNSP” it was “failed”. In the case of “MKAEKNLNKTLKISYKALFFSFALTLIKLLAGFLGNSTALIADSIRSFSELINELKKLLEVFIASKPEDWSHNYGHGKVATLFTGAGACILLFAGIESISLASQELLIFIQGRETEAPEILALSAASLTLVSREIIPLFSSKGKEIEGTLSGTGIYTRNAQIRSLLLSCFVTLGIGCTFLPGKNWVVTDSFIAALMSLYLLGTSGKLLYGTANELIEASLDEEDNKKIRKIINTTEGVTGSGELKTRKIGNGIAINACITVSDSLNIQEVAEIADRVENRLKTVYGEDIYALVKAEPDPGRNCSFRKKMEFSEEGRKENKGINTQDKMLA” it was “failed”; in that of “MKAIIMAGGEGSRLRPLTCKRPKPLVPVANRPVMEYCVDLLRELGIKEVGVTLQYLPQLIEEYFGDGSDFGLHLHYFVEDKPLGTAGSVKNAAAILDETFVVVSGDALTDFDLRPAIARHKESGALATLVLTAVDNPLEYGVVITNPDGSIRSFLEKPSWGEVFSDRVNTGIYILEPEVLELIPEGRPFDFSKDLFPRLLKEKRPLYGVTLSGYWCDIGNLTQYRQAQEDILRGRVKVRVVGQDKGGGVVMGEGVEIAPGARIEGPVLIGGACHIATGAVVGPFTVLGPYTRVEEGATVRRSVLWDNVYTGEGANVRGAVVCSRASLQRRVQVYEGAVIGDGTQVDAGAEVRPEVKVWPEKTLGRETVVHESLIWGRGVARPLFVGSQAPGYLHGDLTPFQVTRLGMAYGASFPPGTTVGLSTFAGGAGEMLYKALAAGLMAAGVQVADLGRLLTPIHRFAVRSLGLDGGCHIKRDAAERDKVWLHLVNSRGHDLNPAAVRKIENLYWREDGRRVQEVPASIYFPGLEGAYRDWLLATLGDHGLKKRALRVALGGQGQVAGVAGTILQDAGAEVIRLDLDPAKTWQAVQEDLPYFAGEIRRYGADLGAALDSNGEELILFTGEGRRVAPAQQMTLLARVYLETHRGASLVLPVTAPRVLEQVAGGLHGRVERVKGHPGIYHEAMARADGETALGQQHLQLDALAALVHILDWLASREESLDSAVAALPPVYTASRTVACPWEAKGRVMRTLISEEPADGVELLDGVQVRHGKGWSLVLPDGETPHYHIYSEAFSQEAAEELAGFYEERLKELIAREKSKGR”, “failed”. For the sequence “MKAIITVVGKDKSGIVAGVSGKIAELGLNIDDISQTVLDEYFTMMAVVSSDEKQDFTYLRNEFEAFGQTLNVKINIQSAAIFEAMYNI”, the protein production entry is on record as “not failed”.

Take “MKAILRASRIGRVILRYRLDALLEGTPAERWLRLAKPFVPRASAEIAAQSRGARLRLALQELGPIFVKFGQILSTRRDLIPADVAEELTLLQDRVKPFDGQAARLIVEAALGLPVSVAFASFDTVPLASASIAQVHAATLPPDANGVRREVVVKVLRPEIERQIDADIALLHSLATLVERTHPRADKIRPREVVAEIEGTLAAELDLQREGANASVLRRFWEGSDDLYVPEVIWSHTAERALTLERVYGIPSDDIAKLDAAGIDRKALAAKGVRVFYTQVFRDNFFHADAHAGNIWVDSDPERRLNPRFIALDFGIMGQLSQEDQYYLAENFMAIFHKDYRRMAELHVEAGWMPSNVRIDELEAAARSVCEPYFNRPLSEISLAQVLIKLFRVAQRYELTLQPQLILLQKTLLNIEGVGRQLDPRLDIWAVARPVLERILRERYSPRRVLRELSKRLPEIMTHAPDMPRLVYSWLTQQVEGRHQIAIRSPELLALDLSLRKLQTRVVTAITGSGLLVVAAVLYGLHPDGWYLGTVPVWSWISGGAGSAALLVAWLRR”: the protein production entry is given as “failed”.

As for “MKAKIYYNGNIITMEDSICGDAILIKDKIIKKIGTKEEVFALKNKDTEIIDLQGKTLMPSFIDSHSHLIAFATTLKLVPLEDATSFKDIVKKIQDFKESLEHHHHHH”, the protein production entry is reported as “failed”. The entry for “MKAKPLSQDPGSKRYAYRINKEENRKELKHVKINESSLVQEGQKIDLPKKRYYRQRAHSNPFSDHQLEYPVSPQDMDWSKLYPYYKNAENGQMTKKVTIADIGCGFGGLMIDLSPAFPEDLILGMEIRVQVTNYVEDRIIALRNNTASKHGFQNINVLRGNAMKFLPNFFEKGQLSKMFFCFPDPHFKQRKHKARIITNTLLSEYAYVLKEGGVVYTITDVKDLHEWMVKHLEEHPLFERLSKEWEENDECVKIMRNATEEGKKVERKKGDKFVACFTRLPTPAIL” is “failed”; for “MKAKSLMVVGTTSHAGKSLLAAVICRWLAQQGYRVTPFKGQNMALNAYVTREGGEIGYAQAMQAWAAGIEPEVAMNPILLKPQGNMTSQVILRGQVVGVTRAADYYRDYFERGWQAITEALADLQQRFDWIVCEGAGSPAEINLKHRDLTNMRVATYLGAPTILVADIDRGGVFAHIVGTLMLLEPAERALIQGIVINKFRGQRSLLDSGLQWLEETTGVPVLGVIPWLERHYAAEDSLDLWDPRPQRQGADLKITVIRLPRIANFTDIDPLLAEPSVAVEFLPPHRPLGRPDAVILPGTKTTIADLQVLRETGMAEQLKTYAAQGGTILGICGGWQMLGTAISDPLGLEGCPGTYEGLGLMPLHTQLGPTKCTQQQQTQSLYFNCPEPILGYEIHQGQSEYTGDRQGWHPLFAAPELGLVNRAGTLWGTYLHGLLENGPWRRHWLNGLRSRRQLPPLPTAIPHYGEQRTVALDELTKTVMAHLNLRGICKLC” it is “failed”. In the case of “MKALHFGAGNIGRGFIGKLLADAGIQLTFADVNQVVLDALNARHSYQVHVVGETEQVDTVSGVNAVSSIGDDVVDLIAQVDLVTTAVGPVVLERIAPAIAKGLVKRKEQGNESPLNIIACENMVRGTTQLKGHVMNALPEDAKAWVEEHVGFVDSAVDRIVPPSASATNDPLEVTVETFSEWIVDKTQFKGALPNIPGMELTDNLMAFVERKLFTLNTGHAITAYLGKLAGHQTIRDAILDEKIRAVVKGAMEESGAVLIKRYGFDADKHAAYIQKILGRFENPYLKDDVERVGRQPLRKLSAGDRLIKPLLGTLEYSLPHKNLIQGIAGAMHFRSEDDPQAQELAALIADKGPQAALAQISGLDANSEVVSEAVTAYKAMQ” it was “not failed”; in that of “MKALSPVRGCYEAVCCLSERSLAIARGRGKGPAAEEPLSLLDDMNHCYSRLRELVPGVPRGTQLSQVEILQRVIDYILDLQVVLAEPAPGPPDGPHLPIQTAELAPELVISNDKRSFCH”, “failed”. On to “MKARLLIVVAVLALTACATTTSPTGRRQVVGGVSQQQLDQLGAQSFAQTKAKEKVSTDGKQNAYVQCVVNALVAQLPPQWRETKWETALFVDNEANAFALPGGKVGVNTGIFTVAKTQDQLAAVLGHEIGHVISRHHEERITRQLGAQTGLGIIGALAGAAYGDGAASAVNQVGGMTAQTVFLLPGSRTQESEADVVGQRLMAQAGFDPAQAVTLWQNMMAASGNRQPQWLSTHPDPANRIRELQADVAQLEPVYQQAKQSGRAPRCG”, for which the protein production result was “failed”. The entry for “MKATLFVREFLLNPRTIGAILPSSDYLAEKMMASVCFEQAKYIIEYGPGTGVFTDKILRYRHPDTVVMIIEHNREFFCILNEKYQDEKNVIIINGSAEHIETYVKEHNIPFVDYIISGLPFASLPLHVSNAILNKARYLLGVKGKFITFQYTQTKVRLFTQFFNQMTVERVYRNLPPAFVFSCYNEKLEHHHHHH” is “not failed”; for “MKAVANRYYVLCQEKVFIRSLLSGFFLLFISFLIMNFAGKYASLMAGNPVNDLILDNLPLRDVTLFHVNAAIIFWTIFTIYTLLNPAFIPFITKSAALFILIRCAFISMTHLGAPPNQLSIPDNFSSLVLFDGDLFFSGHVGGPFLMMLIFWNKTTLRYICLAAAVFFAYTVLIGHIHYSIDVFAAPFITYGIFHIGQFLFASDYQRLKSELTSSTGN” it is “failed”; for “MKAVILAAGRGSRLQALTDERPKALVPFNGVPLLQRAIETLRRCDVSEVGIVAGYRSEMLAPFADTLFYNHRWHSSGIFSSLNCASDWLSAEPCLVSYGDIFYDSTLVSELINHPADIVLGYDPAAVRLWQQRFNDPLPDLENFRLVDGWVSAIGQTATSLEVIQGQYMGLFKVTPAGWQALKKQLQGLTPQARDQTDMTSLLGTLVSEGFPVAGVATHAPWGEIDCPSDVALYERIYPDRLEHHHHHH” it is “failed”.
